Laboratory results: patent US20230070752A1 (KOREA ADVANCED INSTITUTE OF SCIENCE AND TECHNOLOGY, published 2023)
Numbering of substitutions follows the chain as printed. In names and notes the source's numbering stands.

T1: IFNλR1 (UniProt Q8IU57 21-228, limits assumed)
T1 construct: Soluble protein used at 500, 1000 and 2000 nM in BLI; also called IFNLR1; interferon lambda receptor 1
T1 sequence (looked up): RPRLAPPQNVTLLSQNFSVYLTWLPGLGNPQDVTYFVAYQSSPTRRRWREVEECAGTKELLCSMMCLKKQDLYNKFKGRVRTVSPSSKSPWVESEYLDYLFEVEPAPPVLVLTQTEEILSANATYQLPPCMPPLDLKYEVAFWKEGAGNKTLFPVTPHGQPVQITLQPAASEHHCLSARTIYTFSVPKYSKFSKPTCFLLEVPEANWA

T2: IL10Rβ (UniProt Q08334 20-220, limits assumed)
T2 construct: Soluble protein used at 500, 1000 and 2000 nM in BLI; also called IL10RB; interleukin-10 receptor beta
T2 sequence (looked up): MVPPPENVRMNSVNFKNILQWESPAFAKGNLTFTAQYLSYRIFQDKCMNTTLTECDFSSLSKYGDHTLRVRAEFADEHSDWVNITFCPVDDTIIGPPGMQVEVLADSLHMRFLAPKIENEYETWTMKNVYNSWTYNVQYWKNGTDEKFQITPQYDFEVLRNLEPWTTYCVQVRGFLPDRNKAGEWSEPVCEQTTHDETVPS

B1: eIFNλ4 (wild-type IFNλ4 produced in E. coli, R&D Systems 9165-IL) (ligand)
chain: MAPRRCLLSHYRSLEPRTLAAAKALRDRYEEEALSWGQRNCSFRPRRDPPRPSSCARLRHVARGIADAQAVLSGLHRSELLPGAGPILELLAAAGRDVAACLELARPGSSRKVPGAQKRRHKPRRADSPRCRKASVVFNLLRLLTWELRLAAHSGPCL
modifications: not glycosylated (E. coli); biotinylated for BLI
notes: Bought as protein and used as the wild-type control; also called eIFNL4; control wild-type IFNλ4
B2: M3 (P73N) IFNλ4 variant (ligand)
chain: B1 chain with M1A, P52N
modifications: N-glycans at Asn61 and at P73N (Asn73); biotinylated for BLI
notes: Secreted from Expi293F cells as a C-terminal Protein A fusion; Protein A was removed by thrombin at an LVPRGS site; Monomer by SDS-PAGE; also called P73N (M3)
B3: M7 (L28N+P73N) IFNλ4 variant (ligand)
chain: B1 chain with M1A, L7N, P52N
modifications: N-glycans at Asn61 and at P73N (Asn73); L28N not glycosylated; biotinylated for BLI
notes: Secreted from Expi293F cells as a C-terminal Protein A fusion; Protein A was removed by thrombin at an LVPRGS site; Monomer by SDS-PAGE; also called double mutant
B4: M1 (L28N) IFNλ4 variant (ligand)
chain: B1 chain with M1A, L7N
modifications: N-glycan at Asn61 (L28N not glycosylated); biotinylated for BLI
notes: Secreted from Expi293F cells as a C-terminal Protein A fusion; Protein A was removed by thrombin at an LVPRGS site; Monomer by SDS-PAGE; also called L28N (M1)

How the values were obtained:
[1] = target: T1, IFNλR1; test: BLI (BLItz), biotinylated eIFNλ4 immobilized on streptavidin biosensor, IFNλR1 as analyte (500, 1000, 2000 nM), 1:1 global fit; column head k dis
Procedure: (§1) Sensorgrams were obtained from BLItz instrument. Data points are shown in grey and the corresponding fits are shown in red (IFNλR1) and blue (IL10Rβ). KD values were calculated from 1:1 global fitting.
(§2) The binding kinetics of the IFNλ4 variant to IFNλR1 and IL10Rβ were measured using biolayer light interferometry (BLI) in a BLItz system (ForteBio, Pall Life Sciences). The mixture was stirred in a washing buffer (200 mM NaCl, 20 mM Tris-HCl pH 8, 5% glycerol, 0.01% Tween-20) at 2,200 rpm. Analysis was performed at room temperature. 0.25 mg/ml of biotinylated IFNλ4 was loaded on the surface of the streptavidin biosensor (ForteBio) for 1 minute, and then the loaded biosensor was washed with a washing buffer (200 mM NaCl, 20 mM Tris-HCl pH 8, 5% glycerol, 0.01% Tween-20) for 2 minutes to remove unbound protein. The biosensor tip was immersed in drops containing the indicated concentrations of IFNλR1 and IL10Rβ (500, 1000 and 2000 nM). Associations (on rate, kon) were measured at intervals of 2 minutes. Subsequently, the sensor was immersed in the washing buffer for 2 minutes to measure dissociations (off-rate koff). KD measured in nanomoles was calculated as a ratio of […]. The resulting data was analyzed by fitting to a 1:1 ligand model using the entire global fitting function.

[2] = target: T1, IFNλR1; test: BLI (BLItz), biotinylated eIFNλ4 immobilized on streptavidin biosensor, IFNλR1 as analyte (500, 1000, 2000 nM), 1:1 global fit
Procedure: as §1, §2

[3] = target: T2, IL10Rβ; test: BLI (BLItz), biotinylated eIFNλ4 immobilized on streptavidin biosensor, IL10Rβ as analyte (500, 1000, 2000 nM), 1:1 global fit; column head k dis
Procedure: as §1, §2

[4] = target: T1, IFNλR1; test: BLI (BLItz), biotinylated IFNλ4 on streptavidin sensor, IFNλR1 in solution at 500-2000 nM, 1:1 global fit
Procedure: as §1, §2
(§3) To investigate whether the mutation and the additional glycan on IFNλ4 variants affect their binding to their receptors, IL10Rβ and IFNλR1, in-vitro binding affinity of the IFNλ4 variants to IL10Rβ and IFNλR1 was evaluated using biolayer light interferometry (BLI) and then compared with that of wild-type IFNλ4 (eIFNλ4) purified from E. coli. Similar to eIFNλ4, the three IFNλ4 variants appropriately bound to the receptor, and the binding affinity for IFNλR1 was higher than the binding affinity for IL10Rβ (FIG. 4).

[5] = target: T2, IL10Rβ; test: BLI (BLItz), biotinylated IFNλ4 on streptavidin sensor, IL10Rβ in solution at 500-2000 nM, 1:1 global fit
Procedure: as §1, §2, §3

[6] = target: T2, IL10Rβ; test: BLI (BLItz), biotinylated eIFNλ4 immobilized on streptavidin biosensor, IL10Rβ as analyte (500, 1000, 2000 nM), 1:1 global fit
Procedure: as §1, §2

[7] = target: T2, IL10Rβ; test: BLI (BLItz), biotinylated IFNλ4 variant immobilized on streptavidin biosensor, IL10Rβ as analyte (500, 1000, 2000 nM), 1:1 global fit
Procedure: as §1, §2

[8] = target: T2, IL10Rβ; test: BLI (BLItz), biotinylated IFNλ4 variant immobilized on streptavidin biosensor, IL10Rβ as analyte (500, 1000, 2000 nM), 1:1 global fit; column head k dis
Procedure: as §1, §2

[9] = target: T1, IFNλR1; test: BLI (BLItz), biotinylated IFNλ4 variant immobilized on streptavidin biosensor, IFNλR1 as analyte (500, 1000, 2000 nM), 1:1 global fit; column head k dis
Procedure: as §1, §2

[10] = target: T1, IFNλR1; test: BLI (BLItz), biotinylated IFNλ4 variant immobilized on streptavidin biosensor, IFNλR1 as analyte (500, 1000, 2000 nM), 1:1 global fit
Procedure: as §1, §2

| Binder | koff [1] | kon [2] | koff [3] | Kd [4] | Kd [5] | kon [6] | kon [7] | koff [8] | koff [9] | kon [10] |
| --- | --- | --- | --- | --- | --- | --- | --- | --- | --- | --- |
| B1 | 0.000397 s⁻¹ | 21300 M⁻¹ s⁻¹ | 0.00203 s⁻¹ | 19 nM | 71 nM | 28800 M⁻¹ s⁻¹ | – | – | – | – |
| B2 | – | – | – | 22 nM | 51 nM | – | 29100 M⁻¹ s⁻¹ | 0.00148 s⁻¹ | 0.000647 s⁻¹ | 29200 M⁻¹ s⁻¹ |
| B3 | – | – | – | 17 nM | 49 nM | – | 26200 M⁻¹ s⁻¹ | 0.00129 s⁻¹ | 0.000967 s⁻¹ | 58300 M⁻¹ s⁻¹ |
| B4 | – | – | – | 14 nM | 49 nM | – | 21300 M⁻¹ s⁻¹ | 0.00104 s⁻¹ | 0.000686 s⁻¹ | 50200 M⁻¹ s⁻¹ |
